Experimental findings from publication PMC6526949 (Biochemistry, 2018) are described below.

The data set deals with the molecule itself. Briefly: SEC. On the technique in general: SEC sorts molecules by how far they enter the pores of the column.

By stoichiometry N is commonly meant a count of units in the complex or per binding partner.

B1: Escherichia coli O-acetylserine sulfhydrylase isoenzyme B (CysM) (enzyme, UniProt P16703 1-303, looked up)
chain: MSTLEQTIGNTPLVKLQRMGPDNGSEVWLKLEGNNPAGSVKDRAALSMIVEAEKRGEIKPGDVLIEATSGNTGIALAMIAALKGYRMKLLMPDNMSQERRAAMRAYGAELILVTKEQGMEGARDLALEMANRGEGKLLDQFNNPDNPYAHYTTTGPEIWQQTGGRITHFVSSMGTTGTITGVSRFMREQSKPVTIVGLQPEEGSSIPGIRRWPTEYLPGIFNASLVDEVLDIHQRDAENTMRELAVREGIFCGVSSGGAVAGALRVAKANPDAVVVAIICDRGDRYLSTGVFGEEHFSQGAGI
modifications: PLP cofactor ligated through a Schiff base to the ε-amino group of Lysine-41 (PLP:CysM ratio approximately 0.57:1)
B1: the “stoichiometry N” value was determined as 2.
